Test results from US20130230533A1 (Regeneron, published 2013).

T1: Dimeric human CD48-mFc (human)
T1 construct: the whole entry is the construct; also called hCD48-mFc
T1 chain: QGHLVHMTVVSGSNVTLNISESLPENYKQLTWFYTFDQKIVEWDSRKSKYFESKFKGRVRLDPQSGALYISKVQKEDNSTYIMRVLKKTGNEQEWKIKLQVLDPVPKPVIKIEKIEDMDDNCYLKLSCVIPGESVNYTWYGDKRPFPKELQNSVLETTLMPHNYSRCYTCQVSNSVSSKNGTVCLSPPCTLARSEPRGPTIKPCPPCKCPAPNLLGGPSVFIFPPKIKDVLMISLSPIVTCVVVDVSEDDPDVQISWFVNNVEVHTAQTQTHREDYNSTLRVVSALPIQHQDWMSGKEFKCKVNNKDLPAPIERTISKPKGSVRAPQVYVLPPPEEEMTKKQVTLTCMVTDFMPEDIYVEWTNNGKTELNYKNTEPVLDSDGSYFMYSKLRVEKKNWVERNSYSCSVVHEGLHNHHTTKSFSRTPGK

T2: Monomeric human CD48-mmH (human)
T2 chain: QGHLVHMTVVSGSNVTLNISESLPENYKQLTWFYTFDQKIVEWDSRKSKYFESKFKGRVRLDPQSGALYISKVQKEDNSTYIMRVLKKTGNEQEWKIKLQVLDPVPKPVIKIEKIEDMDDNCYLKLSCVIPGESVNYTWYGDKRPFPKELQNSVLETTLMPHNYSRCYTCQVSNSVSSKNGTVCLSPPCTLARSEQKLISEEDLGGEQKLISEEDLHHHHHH

T3: Dimeric monkey CD48-mFc (monkey)
T3 construct: Soluble monkey CD48 with a C-terminal Fc fusion [mFc]; the whole entry is the construct
T3 chain: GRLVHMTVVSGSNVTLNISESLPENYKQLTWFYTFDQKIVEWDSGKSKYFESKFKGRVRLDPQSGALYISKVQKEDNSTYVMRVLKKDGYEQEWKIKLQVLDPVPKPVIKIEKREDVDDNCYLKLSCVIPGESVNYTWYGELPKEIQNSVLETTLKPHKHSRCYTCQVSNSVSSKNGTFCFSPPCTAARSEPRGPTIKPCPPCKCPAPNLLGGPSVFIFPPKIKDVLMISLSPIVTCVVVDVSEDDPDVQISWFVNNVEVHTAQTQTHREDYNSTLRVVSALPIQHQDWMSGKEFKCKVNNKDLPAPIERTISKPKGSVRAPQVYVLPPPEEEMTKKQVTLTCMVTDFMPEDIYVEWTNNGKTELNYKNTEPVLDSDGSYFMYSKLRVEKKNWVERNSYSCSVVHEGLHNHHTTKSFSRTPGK

T4: Monomeric monkey CD48-mmH (monkey)
T4 construct: Soluble monkey CD48 with a myc-myc-hexa-histidine C-terminal tag; the whole entry is the construct; also called mfCD48-mmH
T4 chain: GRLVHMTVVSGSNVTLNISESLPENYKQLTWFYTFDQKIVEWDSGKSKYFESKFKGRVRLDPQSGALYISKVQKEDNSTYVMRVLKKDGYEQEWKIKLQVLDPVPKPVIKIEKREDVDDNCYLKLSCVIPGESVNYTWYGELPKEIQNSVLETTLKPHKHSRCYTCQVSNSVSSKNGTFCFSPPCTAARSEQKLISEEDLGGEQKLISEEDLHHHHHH


Experiments:
[1] = target: T1, Dimeric human CD48-mFc; assay: SPR (Biacore), antibody captured by anti-Fc, CD48 in solution, 37 C
Experimental: (§1) Measurements were conducted on a T100-2 BIACORE™ instrument (Biacore Life Sciences division of GE Healthcare, Piscataway, N.J.). Antibodies (either with mouse Fc [designated “H2M” or “H3M”] or human IgG4 Fc [designated “H4H”]) were captured through an anti-Fc chip surface, and CD48 was flowed over the surface either in a monomeric (soluble CD48 expressed with a myc-myc-hexa-histidine C-terminal tag [mmH]) or dimeric (soluble CD48 expressed with a C-terminal Fc fusion [mFc]) format.
(§2) The soluble CD48 was applied to the flow cell in separate injections at different concentrations, and kinetic association (kₐ) and dissociation (kd) rate constants were determined by fits to the kinetic binding data using Biacore software. Binding dissociation equilibrium constants and dissociation half-times were calculated from the kinetic rate constants as: KD=kd/kₐ; t_{1/2}=(ln 2/kd) (units: ka=M⁻¹*s⁻¹; kd=s⁻¹; KD=M; T½=min) (Tables 3-6).

[2] = target: T2, Monomeric human CD48-mmH; assay: as above
Experimental: as §1, §2

[3] = target: T3, Dimeric monkey CD48-mFc; assay: SPR (Biacore), antibody captured by anti-Fc, CD48 in solution, 25 C
Experimental: as §1, §2

[4] = target: T4, Monomeric monkey CD48-mmH; assay: as above
Experimental: as §1, §2

[5] = target: T3, Dimeric monkey CD48-mFc; assay: SPR (Biacore), antibody captured by anti-Fc, CD48 in solution, 37 C
Experimental: as §1, §2

[6] = target: T4, Monomeric monkey CD48-mmH; assay: as above
Experimental: as §1, §2

Binder | Kd [1] | T½ [1] | koff [1] | kon [1] | Kd [2] | T½ [2] | koff [2] | kon [2] | also measured
H2M1707N (antibody, V domains shown, Human variable domains, mouse IgG2 Fc (H2M)) VH: EGQLLESGGGLAQPGGSLRLSCAASGITFGRYAMSWVRQAPGKGLEWVSLISGSGGSTYHADSVKGRFTISRDNSKNTLYLQMNSLRAEDTAVYYCAIYNNYNWFDPWGQGTLVTVSS VL: EIVLTQSPGTLSLSPGERATLSCRASQSVSSNYLAWYQQKPGQAPRLLIYDASSRATDIPDRFSGSGSGTDFTLTISRLEPEDFAVYYCQQYGSSPRTFGQGTKVEIK | 0.247 nM | 51 min | 0.000227 s⁻¹ | 920000 M⁻¹ s⁻¹ | 14.7 nM | 4 min | 0.00314 s⁻¹ | 214000 M⁻¹ s⁻¹ | –
H4H1707N (antibody, V domains shown, Human IgG4 Fc (H4H)) VH: EGQLLESGGGLAQPGGSLRLSCAASGITFGRYAMSWVRQAPGKGLEWVSLISGSGGSTYHADSVKGRFTISRDNSKNTLYLQMNSLRAEDTAVYYCAIYNNYNWFDPWGQGTLVTVSS VL: EIVLTQSPGTLSLSPGERATLSCRASQSVSSNYLAWYQQKPGQAPRLLIYDASSRATDIPDRFSGSGSGTDFTLTISRLEPEDFAVYYCQQYGSSPRTFGQGTKVEIK | 0.0654 nM | 180 min | 6.42e-05 s⁻¹ | 981000 M⁻¹ s⁻¹ | 9.63 nM | 4 min | 0.00273 s⁻¹ | 284000 M⁻¹ s⁻¹ | Kd [3]: 1.48 nM; T½ [3]: 10 min; koff [3]: 0.00119 s⁻¹; kon [3]: 805000 M⁻¹ s⁻¹; Kd [4]: 1.25 nM; T½ [4]: 32 min; koff [4]: 0.000362 s⁻¹; kon [4]: 289000 M⁻¹ s⁻¹; Kd [5]: 3.2 nM; T½ [5]: 2 min; koff [5]: 0.00524 s⁻¹; kon [5]: 1.64e+06 M⁻¹ s⁻¹; Kd [6]: 3.72 nM; T½ [6]: 9 min; koff [6]: 0.00122 s⁻¹; kon [6]: 327000 M⁻¹ s⁻¹
H2M1709N (antibody, mouse IgG2, V domains shown, Human variable domains, mouse IgG2 Fc (H2M)) VH: QVQLVQSGAEVKKPGASVKVSCKVSGYTLTELSIHWVRQAPGKGLEWMGGFDPEDGETIYAQKFQGRVNMTEDTSTDTAYMELSSLRSDDTTVYFCASLLPYFDYWGQGTLVTVSS VL: EIVLTQSPGTLSLSPGERATLSCRASQSVSSSYLAWYQQKPGQAPRLLIYGASSRATGIPDRFSGSGSGTDFTLSISRLEPEDFAVYFCQQYGSSMYTFGQGTKLEIK | 0.248 nM | 31 min | 0.000377 s⁻¹ | 1.52e+06 M⁻¹ s⁻¹ | 35.1 nM | 0 min | 0.04 s⁻¹ | 1.14e+06 M⁻¹ s⁻¹ | –
H3M1766N (antibody, V domains shown, Human variable domains, mouse Fc (H3M); also called H2M1766N) VH: EVQLVESGGGLAQPGGSLRLSCAASGFTFSSYEMNWVRQAPGKGLEWVSYITTSGSTIYYADSVKGRFTMSRDNAKKSLYLEMNSLRAEDTAVYYCAREECTNGVCYKDYQYYGMDVWGQGTTVTVSS VL: DIQMTQSPSSVSASVGDRVTITCRASQNINTWLAWYQQKPGKVPKLLIYAASSLQSGVPSRFSGSGSGTDFTLTISSLQPEDFATYYCQQANSFPLTFGGGTKVEIK | 0.342 nM | 36 min | 0.000324 s⁻¹ | 949000 M⁻¹ s⁻¹ | 3.84 nM | 19 min | 0.00062 s⁻¹ | 161000 M⁻¹ s⁻¹ | –
H2M1713N (antibody, mouse IgG2, V domains shown, Human variable domains, mouse IgG2 Fc (H2M)) VH: QVQLVQSGAEVKKPGASVKVSCKASGHTFTNYYIHWVRQAPGQGLEWMGITNPNDGNTRYAQKFQGRISMTWDTSTSTVFMELSSLKSEDTAVYYCAGLRYWFFDLWGRGTPVTVSS VL: DIQMTQSPSSVSASVGDRVTITCRASQDISSWLAWYQQKPGKAPNLLIFAASSLQSGVPSRFSGSGSGTDFTLTISSLQPEDFGTYYCQQTDNFPRTFGQGTKVEIN | 0.0663 nM | 140 min | 8.27e-05 s⁻¹ | 1.25e+06 M⁻¹ s⁻¹ | 2.74 nM | 18 min | 0.000644 s⁻¹ | 235000 M⁻¹ s⁻¹ | –
H2M1764N (antibody, mouse IgG2, V domains shown, Human variable domains, mouse IgG2 Fc (H2M)) VH: QVQLVESGGGVVQPGRSLRLSCAASGFTFSDYGMHWVRQAPGKGLEWVAVIWNDGSNKNYADSVKGRFSISSDSSKNTLYLHMNSLRAEDTAVYYCARSLYSTSPWYFDLWGRGTLVTVSS VL: not shown | 0.586 nM | 28 min | 0.000412 s⁻¹ | 702000 M⁻¹ s⁻¹ | 94.7 nM | 1 min | 0.016 s⁻¹ | 169000 M⁻¹ s⁻¹ | –
H2M1763N (antibody, mouse IgG2, V domains shown, Human variable domains, mouse IgG2 Fc (H2M)) VH: QIQLVQSGAEMKRPGTSVKVSCKASGYTFTSYGINWVRQAPGQGLEWMGWISAYNGDTNYAQKLQGRVTMTTDTSTTTAYMEVRSLRSDDTAVYYCARFLTGTKDYYYGMDVWGQGTTVTVSS VL: DIQMTQSPSSLSASVGDRVTITCQASQDISNFLNWYQQKPGKAPDLLINDASILETGVPSRFSGSGSGTDFTLTINNLQPEDIATYYCQQYDNLPLTFGGGTKVEIK | 0.293 nM | 13 min | 0.000883 s⁻¹ | 3.02e+06 M⁻¹ s⁻¹ | 13.5 nM | 1 min | 0.0201 s⁻¹ | 1.49e+06 M⁻¹ s⁻¹ | –
H2M1712N (antibody, mouse IgG2, V domains shown, Human variable domains, mouse IgG2 Fc (H2M)) VH: QIQLVQSGAEMKRPGTSVKVSCKASGYTFSSYGINWVRQAPGQGLEWMGWISAYNGDTNYAQKLQGRVTMTTDTSTTTAYMEVRSLRSDDTAVYYCARFLTGTKDLYYGMDVWGQGTTVTVSS VL: DIQMTQSPSSLSASVGDRVTITCQASQDISNFLNWYQQKPGKAPDLLINDASILETGVPSRFSGSGSGTDFTLTINSLQPEDIATYYCQQYDNLPLTFGGGTKVEIK | 0.252 nM | 17 min | 0.000685 s⁻¹ | 2.72e+06 M⁻¹ s⁻¹ | 16.6 nM | 1 min | 0.014 s⁻¹ | 846000 M⁻¹ s⁻¹ | –
H2M1710N (antibody, mouse IgG2, V domains shown, Human variable domains, mouse IgG2 Fc (H2M)) VH: QVQLVQSGADMKKPGASVRVSCKASGYTFTDYFIHWVRQAPGQGPEWMGWINPDSGATNYAQQFQGRVTMTRDTSISATYMEMSRLRSDDTAVFYCARDKDGSGWYLDDWGQGTLVTVSS VL: EIVLTQSPATLSLSPGERATLSCRASQSVNIYLAWYQQKPGQAPRLLIYDASNRASGIPARFSGSGSGTDFTLTISSLEPEDFAVYYCQQRSNWPPSITFGQGTRLEIK | 0.885 nM | 27 min | 0.000426 s⁻¹ | 481000 M⁻¹ s⁻¹ | 153 nM | 2 min | 0.0052 s⁻¹ | 34000 M⁻¹ s⁻¹ | –
H2M1811N (antibody, mouse IgG2, V domains shown, Human variable domains, mouse IgG2 Fc (H2M)) VH: QVQLVQSGAEAREPGASVRVSCKASGYTFTDYFIHWVRQAPGQGLEWMGWINPNSGATNFAQKFQGRVTMTRDTSLITAYMDLSRLKSDDAAVFYCARDVDGSGWYLDFWGQGTLVTVSS VL: EIVLTQSPATLSLSPGERATLSCRASQSVSIYLAWYQQKPGQAPRLLIYDASNRATGIPARFSGSGSGTDFTLTISRLEPEDFAVYYCQQRSDWPPSITFGQGTRLEIK | 0.966 nM | 45 min | 0.000256 s⁻¹ | 265000 M⁻¹ s⁻¹ | 22.7 nM | 4 min | 0.00295 s⁻¹ | 130000 M⁻¹ s⁻¹ | –
